Holding throughout (details): both partners purified
The target of assay [1] is T1, LBT-TPR2A (TPR2A domain of human HOP, wild type, with an N-terminal lanthanide binding tag) (human, UniProt P31948 225-337).
T1 construct: TPR2A domain of HOP (STIP1), human, aa 225-337; Cloned into the XhoI site of pST96/LBT-MCS; Loaded with equimolar Tb3+ in the assay; also called LBT-TPR2A WT; TPR2A WT; source: E. coli Rosetta (DE3) pLysS, purified (Ni-NTA)
Briefly: LRET (luminescence resonance energy transfer); equimolar mixture in solution of the LBT-tagged protein loaded with Tb3+ and the EGFP or TagRFP fusion protein (5 µM, or 25 µM for TagRFP-C70); 96-well black plates; excitation 280 nm, 100 µs delay, emission spectrum 450-600 nm.

In assay [2] the target is T2, LBT-TPR2A K229A (TPR2A domain of human HOP, point mutant K229A) (human, UniProt P31948 225-337, K229A).
T2 construct: TPR2A domain of HOP (STIP1), human, aa 225-337, with K229A; Loaded with equimolar Tb3+ in the assay; also called TPR2A mutant K229A; source: E. coli Rosetta (DE3) pLysS, purified (Ni-NTA)
T2 sequence (P31948 225-337 K229A): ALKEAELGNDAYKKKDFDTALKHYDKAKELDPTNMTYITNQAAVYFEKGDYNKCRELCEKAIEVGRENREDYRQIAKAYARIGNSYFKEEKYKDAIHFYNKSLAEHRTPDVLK
Described as above.

Assay [3] has as its target T3, LBT-TPR2A (TPR2A domain of yeast Sti1 with an N-terminal lanthanide binding tag) (yeast, UniProt P15705 252-379).
T3 construct: TPR2A domain of Sti1, yeast, aa 252-379; Loaded with equimolar Tb3+ in the assay; also called LBT-TPR2A (Sti1); LBT-TRP2A; source: E. coli Rosetta (DE3) pLysS, purified (Ni-NTA)
T3 sequence (looked up): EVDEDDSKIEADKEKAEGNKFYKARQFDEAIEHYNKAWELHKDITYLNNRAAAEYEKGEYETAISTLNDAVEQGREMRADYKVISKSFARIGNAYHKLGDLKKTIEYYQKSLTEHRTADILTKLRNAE
The assay can be described thus: LRET (luminescence resonance energy transfer); titration: 20 µM LBT-TPR2A-Tb3+ complex with increasing EGFP-C90 (0-15 µM); normalized LRET Em510 nm/Em490 nm; Scatchard plot; three independent experiments.

T1 sequence (P31948 225-337): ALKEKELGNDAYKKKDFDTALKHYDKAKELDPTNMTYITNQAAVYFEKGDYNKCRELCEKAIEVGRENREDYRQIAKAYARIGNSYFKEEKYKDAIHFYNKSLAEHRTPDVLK

B1: EGFP-C90 (last 90 amino acids of human HSP90α fused to the C-terminus of EGFP) (domain or fragment)
chain: not shown
notes: HSP90α, human, the C-terminal 90 amino acids, ending with MEEVD; EGFP in the XhoI site and C90 in the BamHI site of pET15b; source: E. coli Rosetta (DE3) pLysS, purified (Ni-NTA); not shown: EGFP, N-terminal, kept
Take B1: the binding result in assay [1] and in assay [2] was “binds” each time. Moreover, the Kd (commonly a measure of binding affinity in units of concentration) in assay [3] was 4.2 µM.

The record behind these values is publication PMC5809404, “Luminescence resonance energy transfer between genetically encoded donor and acceptor for protein-protein interaction studies in the molecular chaperone HSP70/HSP90 complexes” (Scientific Reports, 2018).
